One data set relates to biotinyl-Phe-oxazolone. Kind of data set: self-aminoacylation, catalytic enhancement (BFO) (fold over background); higher = more active; k-Seq, kA / k0A0; sequences stand for … in GGGAAUGGAUCCACAUCUACGAAUUC…UUCACUGCAGACUUGACGAAGCUG
In short, it runs like this: (§1)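 Mutagenized RNA pools with a 21-nt variable region (0.43 μM) were reacted with each biotinyl-aminoacyl-oxazolone at 2–1250 μM for 90 minutes at room temperature, in 50 μL HEPES/NaCl/KCl/MgCl2/CaCl2 buffer containing 5% acetonitrile at pH 6.9–7.0. RNA captured on streptavidin was quantified by triplicate qPCR and by Illumina sequencing. The fraction reacted for each sequence was fit to a pseudo-first-order model with bootstrapping, and catalytic enhancement is the median kA divided by the uncatalyzed rate, taken as the low-activity peak of a bimodal Gaussian fit.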

The subject of another data set is biotinyl-Trp-oxazolone. Kind of data set: self-aminoacylation, catalytic enhancement (BWO) (fold over background); higher = more active; k-Seq, kA / k0A0; sequences stand for … in GGGAAUGGAUCCACAUCUACGAAUUC…UUCACUGCAGACUUGACGAAGCUG
In short, it runs like this: as §1

Variants at the floor of the assay were thinned out.

For the sequence “AAAUUUGCUAAUAGUCGUAAG [Fam3.1 aminoacylation ribozyme variant]”, the self-aminoacylation with biotinyl-Phe-oxazolone stood at 10.3; in the data set on biotinyl-Trp-oxazolone, 4.02. Take “AAGUAUGCUAAUAGUCACAAG [Fam3.1 aminoacylation ribozyme variant]”: the figures for the self-aminoacylation with biotinyl-Phe-oxazolone and in the data set with biotinyl-Trp-oxazolone were 9.66 and 3.36, respectively.

Consider “AAGUAUGCUAAUAGUCGCCAG [Fam3.1 aminoacylation ribozyme variant]”, for which the self-aminoacylation in the data set with biotinyl-Trp-oxazolone turned out to be 3.29.

Take “AAGUGUGCUAAUAGUCACAAG [Fam3.1 aminoacylation ribozyme variant]”: the self-aminoacylation in the data set on biotinyl-Phe-oxazolone was 6.87; in the data set on biotinyl-Trp-oxazolone it was 3.91. On to “AAGUUGGCUAAUAGUCGCGAG [Fam3.1 aminoacylation ribozyme variant]”, for which the self-aminoacylation with biotinyl-Trp-oxazolone came out at 3.96. Regarding “AAGUUUACUAAUUGUCGCAAG [Fam3.1 aminoacylation ribozyme variant]”, the self-aminoacylation came to 2.6 in the data set on biotinyl-Phe-oxazolone and 2 with biotinyl-Trp-oxazolone. Take “AAGUUUGCAAAUAGUCGCCAG [Fam3.1 aminoacylation ribozyme variant]”: the self-aminoacylation amounted to 2.38 with biotinyl-Phe-oxazolone and 2.05 in the data set on biotinyl-Trp-oxazolone. As to “AAGUUUGCUAAAAGUCGCCAG [Fam3.1 aminoacylation ribozyme variant]”, the self-aminoacylation in the data set on biotinyl-Trp-oxazolone was found to be 2.25. On to “AAGUUUGCUAACAGUCGUAAG [Fam3.1 aminoacylation ribozyme variant]”, for which the values for the self-aminoacylation in the data set on biotinyl-Phe-oxazolone and with biotinyl-Trp-oxazolone were 27.2 and 7.81, respectively. Turning to “AAGUUUGCUAAUAUUCCCAAG [Fam3.1 aminoacylation ribozyme variant]”, the self-aminoacylation in the data set on biotinyl-Trp-oxazolone came out at 2.1.

On to “AAGUUUGCUAUUAGUCGCGAG [Fam3.1 aminoacylation ribozyme variant]”, for which the self-aminoacylation in the data set with biotinyl-Phe-oxazolone was found to be 4.31; with biotinyl-Trp-oxazolone it was 2.3. In the same order, the values of “AAGUUUUCUAAAAGUCGCAAG [Fam3.1 aminoacylation ribozyme variant]” are 2.92 and 2.01.

Regarding “AAUACCCUGGUCAUCGAGUGC [Fam2.1 aminoacylation ribozyme variant]”, the self-aminoacylation came out at 3.36 with biotinyl-Phe-oxazolone and 2.03 with biotinyl-Trp-oxazolone.

In the case of “AAUUUUGCGAAUAGUCGCAAG [Fam3.1 aminoacylation ribozyme variant]”, in the data set on biotinyl-Trp-oxazolone, the self-aminoacylation amounted to 2.

Take “AAUUUUGCUAAUAGUCGCAAG [Fam3.1 aminoacylation ribozyme variant]”: the results for the self-aminoacylation in the data set on biotinyl-Phe-oxazolone and with biotinyl-Trp-oxazolone were 5 and 2.43, respectively.

For the sequence “ACACACUUCAAGGAAUCGGUC [Fam1B.1 aminoacylation ribozyme variant]”, the self-aminoacylation in the data set on biotinyl-Phe-oxazolone was 3.08; in the data set on biotinyl-Trp-oxazolone it was 2.96. The like results for “ACACAGUUCAAGCAAUCGGUC [Fam1B.1 aminoacylation ribozyme variant]” were, in that order, 3.76 and 3.46. Take “ACGCACUUCAAGCAAUCGGUC [Fam1B.1 aminoacylation ribozyme variant]”: the self-aminoacylation in the data set on biotinyl-Phe-oxazolone worked out at 33.8; in the data set with biotinyl-Trp-oxazolone, 19.9. In the same order, the values of “AGGUUUGCUAAUAGUCACAAG [Fam3.1 aminoacylation ribozyme variant]” are 9.69 and 2.76. “AGGUUUGCUCAUAGUCGCAAG [Fam3.1 aminoacylation ribozyme variant]”: the self-aminoacylation stood at 2.95 with biotinyl-Phe-oxazolone and 2.45 in the data set with biotinyl-Trp-oxazolone. In the same order, the values of “AUACUUCAAACAAUCGGUCUU [Fam1A.1 aminoacylation ribozyme variant]” are 6.84 and 4.01. In the same order, the values of “AUACUUCAACCAAUCGGUCUG [Fam1A.1 aminoacylation ribozyme variant]” are 5.09 and 4.18. The like results for “AUAGUUCAAACAAUCGGUCUG [Fam1A.1 aminoacylation ribozyme variant]” were, in that order, 4.05 and 3.06.

“AUUACCCUGGCCAUCGAGUAA [Fam2.1 aminoacylation ribozyme variant]”: the self-aminoacylation in the data set with biotinyl-Phe-oxazolone came out at 3.72; in the data set with biotinyl-Trp-oxazolone it was 2.74.

For the sequence “AUUACGCUGCUCAUCGAGUGA [Fam2.1 aminoacylation ribozyme variant]”, in the data set with biotinyl-Trp-oxazolone, the self-aminoacylation came to 2.69.

On to “AUUAGCCUGGUCGUCGAGUGA [Fam2.1 aminoacylation ribozyme variant]”, for which the self-aminoacylation in the data set on biotinyl-Phe-oxazolone worked out at 7.67; in the data set on biotinyl-Trp-oxazolone it was 2.09.

On to “CCACACUCCAGGCAAUCGGUC [Fam1B.1 aminoacylation ribozyme variant]”, for which the self-aminoacylation in the data set on biotinyl-Trp-oxazolone was 2.04. Regarding “CCACACUUCAAGAAAUCGGUU [Fam1B.1 aminoacylation ribozyme variant]”, the self-aminoacylation in the data set on biotinyl-Trp-oxazolone amounted to 2.03.

For “CCACAUUUCAAGAAAUCGGUC [Fam1B.1 aminoacylation ribozyme variant]”, the self-aminoacylation in the data set with biotinyl-Phe-oxazolone came out at 2.09. The same measure, in the same setting: the result for “CCACAUUUCAAGCAAUCGGUC [Fam1B.1 aminoacylation ribozyme variant]” reads 3.26. Still for that read-out and setting: for “CCACGCAUCAAGCAAUCGGUC [Fam1B.1 aminoacylation ribozyme variant]” the value was 3.83; for “CGACACUUCAGGCAAUCGGUC [Fam1B.1 aminoacylation ribozyme variant]”, 2.04. Still for that read-out and setting: for “CUACAUCAAACAAUGGGUCUG [Fam1A.1 aminoacylation ribozyme variant]” the value was 2.95.

As to “CUACUGCAAACAGUCGGUCUG [Fam1A.1 aminoacylation ribozyme variant]”, the self-aminoacylation in the data set with biotinyl-Phe-oxazolone is 2.04. With “CUACUGCAAUCAAUCGGUCUG [Fam1A.1 aminoacylation ribozyme variant]”, the self-aminoacylation in the data set on biotinyl-Phe-oxazolone stood at 2.9. Consider “CUACUUCAAAAACUCGGUCUG [Fam1A.1 aminoacylation ribozyme variant]”, for which the self-aminoacylation in the data set with biotinyl-Phe-oxazolone is 2.19. Take “CUACUUCAAACACUCGGUCGG [Fam1A.1 aminoacylation ribozyme variant]”: the self-aminoacylation with biotinyl-Phe-oxazolone was 5.02.

Consider “CUACUUCAGACAAUCGGGCUG [Fam1A.1 aminoacylation ribozyme variant]”, for which the self-aminoacylation with biotinyl-Phe-oxazolone was determined as 3.52. Still for that read-out and setting: for “CUACUUCCAACGAUCGGUCUG [Fam1A.1 aminoacylation ribozyme variant]” the value was 3.05; for “CUAGUUCAAACAAUCGGUAUG [Fam1A.1 aminoacylation ribozyme variant]”, 3.27; for “CUCCUUCAAACAGUCGGUCUG [Fam1A.1 aminoacylation ribozyme variant]”, 3.98. As for “CUGCUUCAAACAAUCCGUCUG [Fam1A.1 aminoacylation ribozyme variant]”, in the data set with biotinyl-Phe-oxazolone, the self-aminoacylation worked out at 2.71.

Consider “GAGUUUGCUAAUAGUAGCAAG [Fam3.1 aminoacylation ribozyme variant]”, for which the self-aminoacylation in the data set on biotinyl-Phe-oxazolone worked out at 3.32. For the sequence “GCACACUUCAAGCAAACGGUC [Fam1B.1 aminoacylation ribozyme variant]”, the self-aminoacylation with biotinyl-Phe-oxazolone is 2.05. Take “GUACGUCAAACAAUCGGUCUG [Fam1A.1 aminoacylation ribozyme variant]”: in the data set with biotinyl-Trp-oxazolone, the self-aminoacylation is 2.71. Regarding “GUACUGCAAACAAUCGGUCUG [Fam1A.1 aminoacylation ribozyme variant]”, in the data set on biotinyl-Phe-oxazolone, the self-aminoacylation came to 3.7. For the sequence “GUACUUCGAACAAUCGGUCUG [Fam1A.1 aminoacylation ribozyme variant]”, the self-aminoacylation with biotinyl-Phe-oxazolone is 5.74.

(Values after the supplement of paper PMC9233669.)
